Source: patent US20260167699A1 (Chugai, published 2026)
Positions count from the first letter of the chain named.

B1: GpH7-A5/GpH7-B3 variant A330_14T/GpL16-k0 (antibody, human IgG1, kappa)
heavy 1: not shown
heavy 2: not shown
light: DIVMTQSPLSLPVTPGEPASISCQASESLVHSNRNTYLHWYLQKPGQSPQLLIYKVSNRFSGVPDRFSGSGSGTDFTLKISRVEAEDVGVYYCSQNTHVPPTFGQGTKVEIERTVAAPSVFIFPPSDEQLKSGTASVVCLLNNFYPREAKVQWKVDNALQSGNSQESVTEQDSKDSTYSLSSTLTLSKADYEKHKVYACEVTHQGLSSPVTKSFNRGEC
notes: He Ab: anti-glypican 3 IgG1 heterodimer, only the GpH7-B3 chain mutated; position in EU numbering; also called He Ab
B2: GpH7-A5/GpH7-B3 variant I332_02A/GpL16-k0 (antibody, human IgG1, kappa)
heavy 1: not shown
heavy 2: not shown
light: B1 light
notes: as for B1
B3: GpH7-A5/GpH7-B3 variant I332_04F/GpL16-k0 (antibody, human IgG1, kappa)
heavy 1: not shown
heavy 2: not shown
light: B1 light
notes: as for B1
B4: GpH7-A5/GpH7-B3 variant E333_12R/GpL16-k0 (antibody, human IgG1, kappa)
heavy 1: not shown
heavy 2: not shown
light: B1 light
notes: as for B1
B5: GpH7-A5/GpH7-B3 variant A330_20W/GpL16-k0 (antibody, human IgG1, kappa)
heavy 1: not shown
heavy 2: not shown
light: B1 light
notes: as for B1
B6: GpH7-A5/GpH7-B3 variant A330_15Y/GpL16-k0 (antibody, human IgG1, kappa)
heavy 1: not shown
heavy 2: not shown
light: B1 light
notes: as for B1
B7: GpH7-A5/GpH7-B3 variant A330_18N/GpL16-k0 (antibody, human IgG1, kappa)
heavy 1: not shown
heavy 2: not shown
light: B1 light
notes: as for B1
B8: GpH7-A5/GpH7-B3 variant I332_03V/GpL16-k0 (antibody, human IgG1, kappa)
heavy 1: not shown
heavy 2: not shown
light: B1 light
notes: as for B1
B9: GpH7-A5/GpH7-B3 variant A330_16H/GpL16-k0 (antibody, human IgG1, kappa)
heavy 1: not shown
heavy 2: not shown
light: B1 light
notes: as for B1
B10: GpH7-A5/GpH7-B3 variant A330_19Q/GpL16-k0 (antibody, human IgG1, kappa)
heavy 1: not shown
heavy 2: not shown
light: B1 light
notes: as for B1
B11: GpH7-A5/GpH7-B3 variant E333_18N/GpL16-k0 (antibody, human IgG1, kappa)
heavy 1: not shown
heavy 2: not shown
light: B1 light
notes: as for B1

Assays:
Assay in all cases: SPR (Biacore); binding relative to GpH7-A5/GpH7-B3/GpL16-k0 x100;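 further: antibodies captured on a chip surface, soluble FcγR flowed over in HBS-EP+ running buffer at 25 °C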
[1] = molecular target: T1, FcγRIa extracellular domain, C-terminal His tag (human, UniProt P12314 16-292)
T1 construct: extracellular domain; also called 1a
T1 sequence (P12314 other isoform, or with tags, fused parts or gaps): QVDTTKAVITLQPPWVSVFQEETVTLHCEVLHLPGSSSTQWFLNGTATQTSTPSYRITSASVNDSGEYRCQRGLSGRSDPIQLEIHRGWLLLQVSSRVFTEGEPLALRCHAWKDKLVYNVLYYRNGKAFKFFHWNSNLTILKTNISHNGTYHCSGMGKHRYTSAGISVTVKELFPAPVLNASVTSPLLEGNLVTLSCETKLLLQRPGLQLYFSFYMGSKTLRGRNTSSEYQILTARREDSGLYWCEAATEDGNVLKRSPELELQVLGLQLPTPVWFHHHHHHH
Description: (§1) The antibody of interest was analyzed for its interaction with FcγR using a BiaCore™ T100, BiaCore™ A100, or BiaCore™ 4000 surface plasmon resonance system (GE Healthcare Japan Corp.). The running buffer used was HBS-EP+ (GE Healthcare Japan Corp.). The assay temperature was set to 25° C. The sensor chips used were: a chip prepared by immobilizing antigenic peptides onto Series S Sensor Chip CM5 (GE Healthcare Japan Corp.) by the amine coupling method; a chip prepared by immobilizing antigenic peptides biotinylated in advance onto Series S Sensor Chip SA (certified) (GE Healthcare Japan Corp.) through their interaction; a chip prepared by immobilizing protein L (ACTIGEN, BioVision, Inc.) onto Series S Sensor Chip CM5 (GE Healthcare Japan Corp.); and a chip prepared by immobilizing protein A/G (Thermo Fisher Scientific K.K.) onto Series S Sensor Chip CM5 (GE Healthcare Japan Corp.). The antibody of interest was captured onto any of these chips and allowed to interact with FcγR diluted with a running buffer. The antibody captured on the chip was washed off through the reaction of 10 mM glycine-HCl (pH 1.5) to regenerate the chip, which was repetitively used.

[2] = molecular target: T2, FcγRIIa(R) extracellular domain, C-terminal His tag (human, UniProt P12318 34-217)
T2 construct: extracellular domain; Allotype R131; also called 2aR
T2 sequence: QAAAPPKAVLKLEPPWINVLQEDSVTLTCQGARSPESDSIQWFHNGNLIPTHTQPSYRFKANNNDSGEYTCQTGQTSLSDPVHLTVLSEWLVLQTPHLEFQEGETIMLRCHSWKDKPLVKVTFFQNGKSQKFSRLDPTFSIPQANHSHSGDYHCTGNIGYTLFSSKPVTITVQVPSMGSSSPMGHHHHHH
Description: as §1

[3] = molecular target: T3, FcγRIIa(H) extracellular domain, C-terminal His tag (human, UniProt P12318 34-217)
T3 construct: extracellular domain; Allotype H131; also called 2aH
T3 sequence: T2 sequence with R134H
Description: as §1

[4] = molecular target: T4, FcγRIIb extracellular domain, C-terminal His tag (human, UniProt P31994 43-217)
T4 construct: extracellular domain; also called 2b
T4 sequence: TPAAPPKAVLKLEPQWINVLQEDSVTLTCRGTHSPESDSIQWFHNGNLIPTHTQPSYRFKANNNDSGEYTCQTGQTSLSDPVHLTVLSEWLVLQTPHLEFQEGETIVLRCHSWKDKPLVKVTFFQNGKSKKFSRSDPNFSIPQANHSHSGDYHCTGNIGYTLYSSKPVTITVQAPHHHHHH
Description: as §1

[5] = molecular target: T5, FcγRIIIa extracellular domain, C-terminal His tag (human, UniProt P08637 17-208)
T5 construct: extracellular domain; also called 3a
T5 sequence (P08637 other isoform, or with tags, fused parts or gaps): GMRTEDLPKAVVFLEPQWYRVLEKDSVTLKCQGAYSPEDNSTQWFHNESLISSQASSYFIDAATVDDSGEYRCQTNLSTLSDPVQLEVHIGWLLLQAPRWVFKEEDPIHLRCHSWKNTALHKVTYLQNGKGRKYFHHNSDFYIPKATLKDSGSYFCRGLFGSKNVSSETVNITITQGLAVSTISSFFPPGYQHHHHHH
Description: as §1

Row | Binder | He/Con 1a [1] | He/Con 2aR [2] | He/Con 2aH [3] | He/Con 2b [4] | He/Con 3a [5]
1 | B1 | 108% | 107% | 102% | 87.9% | 85.8%
2 | B2 | 100% | 96.9% | 115% | 114% | 103%
3 | B3 | 106% | 104% | 108% | 115% | 89.3%
4 | B4 | 96.7% | 127% | 110% | 104% | 92.2%
5 | B5 | 111% | 97.6% | 93.8% | 86% | 102%
6 | B6 | 108% | 114% | 106% | 107% | 122%
7 | B7 | 110% | 91% | 88.3% | 71.9% | 67.3%
8 | B8 | 100% | 87% | 108% | 89.5% | 85.2%
9 | B9 | 109% | 111% | 110% | 99% | 102%
10 | B10 | 109% | 117% | 110% | 103% | 86.3%
11 | B11 | 91.4% | 118% | 110% | 98.2% | 76.2%
